Assay results published in the RNAGym collection of RNA variant scans (doi:10.1073/pnas.2313332121).

B1: TPR t1 (parent)
chain: GACCAAUCUGCCCUCAGAGCUCGAGAACAUCUUCGGAUGCAGAGGAGGCAGGCUUCGGUGGCGCGAUAGCGCCAACGUCCUCAACCUCCAAUGCAUCCCACCACAUGAUGAUGCCUGAAGAGCCUUGGUUUUUUG

Variants of: B1
Assay: polymerase ribozyme fitness, log enrichment relative to wild type (log ratio); higher = more active; in vitro selection for triplet polymerase activity
Summary of the method: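 Streptavidin-bead capture of gel-excised extended constructs, followed by RT-PCR, closed a single triplicate in vitro selection round. That round began by annealing PCR-built, transcribed mutant libraries of each subunit of a heterodimeric triplet polymerase ribozyme with a biotinylated primer, the partner subunit and triplets, then incubating them frozen at −7 °C. After Illumina sequencing of inputs and outputs, genotypes needed ≥10 input reads and ≥1 read per output. Fitness is the base-2 logarithm of genotype enrichment over wild-type enrichment, using inverse-variance-weighted replicate averages.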

Point of comparison: C56G G58U A90U, “polymerase ribozyme fitness (log ratio)” value -1.92. Against it:
- C56G C94A — higher, -0.555
- C56U G77A C124U — higher, 1.2
- G57U C72U — higher, -0.387
- C56U A100C U112C — higher, 0.715
- C56U C62A A75U U81C C114A U125G — lower, -4.69
- C56U A84G A95C G127U — lower, -2.62
- G57A C73G G127C — lower, -2.37
- G57A C62U — higher, -0.892
- C56G A83U C115U — lower, -2.71
- C56G C124A U131A — higher, 1.66
- C56U G127U — higher, -0.508
- C56U C79U G113C — lower, -2.44
- C56U U96C C114G — lower, -3.1
- C56U C72G A83G C123U — higher, -1.18
- C56A U116C — higher, -0.712
- C56A U116A — lower, -3.29
- G57A C98G U112A — lower, -6.12
- G57A C97U — within 0.2 log units, -1.83
- G57A U116G — lower, -3.51
- C56U C124U — higher, 1.6
- G57C A121C — higher, 1.63
- C56A G128U U129G — higher, -0.991
- C56G A91C C123A — higher, 0.632
- C56U U87C — higher, 0.555
- C56G C85U — higher, -0.934
- C56G C85A — lower, -2.26
- C56U U129G — higher, -0.409
- G57A G69U C97A U132C — lower, -3.61
- C56G C85U A121U — higher, 0.921
- G57U C62A U125A — lower, -4.41
- G57C G69A — lower, -3
- C56U G110A — higher, -0.719
- G57A A103C G120C C124A — lower, -4.81
- C56U G69C C114G — lower, -6.88
- C56G G110U A111G — lower, -2.16
- C56A U125G — higher, -1.39
- G57C A83C A111G G122A G127A — lower, -3.51
- C56G C70U U96A U132A — lower, -3.39
- C56U C64A C115U — lower, -7.12
- C56A G135U — higher, -1.7
- G57A G93U — higher, -1.69
- C56U U81G U112G C124G — higher, -0.448
- C56U G77U C101A — higher, -1.15
- C56A U87A U92A G120A A121U U131A — lower, -4.2
- C56U C89G — higher, -1.27
- C56U C73G A90U — lower, -3.53
- C56A G117A — within 0.2 log units, -2.11
- C56A G117C — lower, -3.44
- C56A G117U — within 0.2 log units, -2.01
- C56U C80A C97U — lower, -2.71
- C56U U132C — higher, -0.156
- G57A C79U C102G G107U C115G C124U U129G — lower, -5.93
- C56U C64A — lower, -7.74
- C56U C86U C89U U116G — lower, -2.41
- G57A G58A A83U — higher, -0.302
- G57A C94G G113A — lower, -3.76
- G57U A121U — higher, 1.92
- C56U C62U C123A — higher, 0.0354
- C56G U78A U116G — lower, -3.2
- C56U U106C G120A — higher, 0.203
- C56G U78A U81A G113C — lower, -3.06
- C56U G110U U116G G117U — lower, -6.29
- C56U U87A C123G — higher, 1.81
- C56G A74U G110A U116G C124G G135U — lower, -5.19
- C56G C72A C79U — higher, -1.41
- C56A G117A U125G G128C — lower, -4.73
- C56G A90C A121G — higher, 1.01
- C56U C70U U132C — higher, -0.908
- C56U U109A — lower, -5.25
- G57C G93U A111U G113C C114A C115U U125A — lower, -7.73
- G57C U78G U112A A118U — higher, 1.26
- C56A U129C — higher, -0.603
- C56A U129A — higher, -1.22
- C56A U81A C102A — lower, -3.37
- G57A G58A U81A U106C — lower, -2.54
- C56U A74G G110A U112A — lower, -2.67
- C56G G113A — higher, -1.08
- C56U C72A G122A — higher, -1.69
- C56U C73U C88G — within 0.2 log units, -1.95
- C56U G120C — higher, 0.793
- C56U G120A — higher, 0.719
- C56U G120U — higher, 0.743
- G57A G71U — higher, -0.925
- C56G G61A G77A — higher, 0.026
- G57C C73U C101A A111C — higher, -0.202
- C56G A91C G117C A119G — within 0.2 log units, -1.73
- G57A G61A — higher, -0.154
- C56U C72A C89A — lower, -2.41
- C56G G113C U133G — lower, -2.55
- C56G G57U G65A C101G A111C — lower, -6.81
- C56G C89G G122A U129A — lower, -4.09
- G57C C72U U129A — higher, -1.29
- C56A U112C — higher, -0.107
- C56G G77A C102U U116C — lower, -3.2
- C56U C80G — lower, -5.25
- C56U U112C A118C — higher, 1.53
- C56U U106G U112G A118C U133G — higher, -0.872
- G57A G71U C124A G135A — higher, 0.736
- C56G G71A G110U G117A — lower, -5.02
- C56G C98A — lower, -3.95
- G57U C73U G127U — higher, -1.28
- C56U G69U U112G A119U — lower, -3.07
- C56G G61U U106A C115U — lower, -5.22
- C56A U78G C86A G120U — higher, -0.426
- C56U U87C C94U A95C G113A — lower, -2.65
- C56G C79U U92A — lower, -3.45
- C56G A84G — higher, -1.43
- C56G G61A U78G C88U U112A — higher, -0.105
- G57U A66C — higher, -1.65
- C56U C114G U131A — within 0.2 log units, -2.06
- C56U U125C — lower, -2.74
- C56U C79U U92C U112A — higher, -0.412
- G57C U78C — higher, 0.0872
- C56U C86U — higher, -0.265
- C56U U116A G117C — higher, -1.64
- C56G G61U C73U — lower, -3.17
- C56U C94A — higher, -0.478
- C56U G69U — within 0.2 log units, -1.78
- C56U A90U U92A — higher, -1.45
- G57U C88A — higher, -1.1
- C56U C79A G113U — lower, -4.28
- G57C C89G A90G — higher, -1.31
- C56U G113U — lower, -2.72
- C56U G113C — within 0.2 log units, -1.97
- C56G C124A — higher, 1.73
- C56G C124G — higher, 0.656
- C56G G69A — lower, -2.86
- G57U C82G — higher, 0.0757
- G57A G127U — within 0.2 log units, -1.83
- C56U U106G U116C — lower, -3.48
- G57A G60U C88U C94U — higher, -1.24
- C56G A68U — lower, -6.1
- G57C G61A — within 0.2 log units, -1.82
- G57A C89U U130C — higher, -0.888
- C56G U96G G120U — higher, -1.41
- C56U C72U G120C G127A U134C — higher, -1.5
- C56G G135C — higher, -0.404
- C56U C70A — lower, -3.82
- C56A U112A C114A U116G — lower, -6.59
- C56U C102A U129G — lower, -3.35
- C56U A74G U81G G117U A118U — lower, -4.51
- C56A U59G — higher, -1.14
- C56U C89U U116C G127A G135U — lower, -3.61
- C56G G110U G117A — lower, -4.5
- C56G C89U — higher, -0.286
- C56U U78A — higher, -0.32
- C56U G77A G117U G120A C124A — higher, -1.34
- G57U C88A A95U A121U C124U — higher, -1.04
- C56A G110C — lower, -2.63
- C56G A84G C114U — lower, -4.61
- C56G A66G C88U C115A — higher, -1.71
- G57U C70U C89U — higher, -1.44
- C56U U116G C123U — within 0.2 log units, -1.77
- C56U G69A G113A — lower, -5.38
- G57C U106A — higher, -0.376
- G57C U112G — higher, 0.543
- G57C G107C — lower, -6.59
- C56G G71A C82A C115A — lower, -3.76
- C56G G93U G135U — lower, -3.52
- C56G A90G G127C — lower, -2.21
- G57C G60A G117U — lower, -2.47
- C56U C73U A105U — lower, -2.37
- C56U C101A C114A — lower, -2.61
- C56U U112A — higher, 1.66
- C56U U112C — higher, 0.364
- G57U C64U U78G C88A C98U U131C — lower, -2.15
